Measured values from the supplement of paper PMC9233669.
Fewer inactive variants are shown than the library holds.

What was measured:
biotinyl-Phe-oxazolone = experiment: self-aminoacylation, catalytic enhancement (BFO) (fold over background); higher = more active; k-Seq, kA / k0A0; sequences stand for … in GGGAAUGGAUCCACAUCUACGAAUUC…UUCACUGCAGACUUGACGAAGCUG
In short: (§1)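 Catalytic enhancement equals the median kA over the uncatalyzed rate, the latter read from the low-activity peak of a bimodal Gaussian fit. Values of kA came from fitting each sequence's fraction reacted to a pseudo-first-order model, with 1000 bootstraps. Reacted RNA was captured with streptavidin and quantified by triplicate qPCR and Illumina sequencing after 90 minutes at room temperature with 2–1250 μM biotinyl-aminoacyl-oxazolone and 0.43 μM mutagenized RNA pools bearing a 21-nt variable region.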

biotinyl-Met-oxazolone = experiment: self-aminoacylation, catalytic enhancement (BMO) (fold over background); higher = more active; k-Seq, kA / k0A0; sequences stand for … in GGGAAUGGAUCCACAUCUACGAAUUC…UUCACUGCAGACUUGACGAAGCUG
In short: as §1

biotinyl-Trp-oxazolone = experiment: self-aminoacylation, catalytic enhancement (BWO) (fold over background); higher = more active; k-Seq, kA / k0A0; sequences stand for … in GGGAAUGGAUCCACAUCUACGAAUUC…UUCACUGCAGACUUGACGAAGCUG
In short: as §1

biotinyl-Leu-oxazolone = experiment: self-aminoacylation, catalytic enhancement (BLO) (fold over background); higher = more active; k-Seq, kA / k0A0; sequences stand for … in GGGAAUGGAUCCACAUCUACGAAUUC…UUCACUGCAGACUUGACGAAGCUG
In short: as §1

Row | Sequence | self-aminoacylation (biotinyl-Phe-oxazolone) | self-aminoacylation (biotinyl-Met-oxazolone) | self-aminoacylation (biotinyl-Trp-oxazolone) | self-aminoacylation (biotinyl-Leu-oxazolone)
1 | AAGUCUGCUAACAGUCGCAAG [Fam3.1 aminoacylation ribozyme variant] | 28.4 | 2.09 | 7.03 | –
2 | AAGUCUGCUAAUAGUCGCAAG [Fam3.1 aminoacylation ribozyme variant] | 51.8 | 2.44 | 9.75 | –
3 | AAGUUAGCUAAAAGUCGCAAG [Fam3.1 aminoacylation ribozyme variant] | 2.41 | – | – | 2.01
4 | AAGUUGGCUAAUUGUCGCAAG [Fam3.1 aminoacylation ribozyme variant] | 2.94 | – | 2.71 | 2.41
5 | AAGUUUGCCAAUAGUCGCAAA [Fam3.1 aminoacylation ribozyme variant] | 2.47 | 2.37 | – | –
6 | AAGUUUGCCAAUAGUCGCAAU [Fam3.1 aminoacylation ribozyme variant] | 9.89 | 2.07 | 3.5 | –
7 | AAGUUUGCUAAUAGUCGAAAA [Fam3.1 aminoacylation ribozyme variant] | – | 2.08 | – | –
8 | ACCUUUGCUAAUAGUCGCAAG [Fam3.1 aminoacylation ribozyme variant] | 2.02 | – | 2.06 | 2.31
9 | ACUACCCUGGUCAUCGAGAGA [Fam2.1 aminoacylation ribozyme variant] | – | 2.02 | – | –
10 | AGUACCCUGGUCAUCGAGUAA [Fam2.1 aminoacylation ribozyme variant] | 3.84 | 2.71 | – | 2.52
11 | AUCACCCUGGUCAUCGAGUGC [Fam2.1 aminoacylation ribozyme variant] | 4.47 | 3.26 | 2.4 | 2.56
12 | AUCACCCUGGUCAUCGAGUUA [Fam2.1 aminoacylation ribozyme variant] | 4.31 | 2.93 | 2.62 | 2.83
13 | AUUAACCUAGUUCAUCGGGUG [Fam2.2 aminoacylation ribozyme variant] | 12.3 | 2.14 | 2.54 | 2.71
14 | AUUACACUGGUCAUCCAGUGA [Fam2.1 aminoacylation ribozyme variant] | 9.37 | 3.47 | 3.06 | 3.01
15 | AUUACCCUGCUCAUCGUGUGA [Fam2.1 aminoacylation ribozyme variant] | 14.7 | 2.7 | 3.19 | 2.85
16 | AUUACCCUGGCCAACGAGUGA [Fam2.1 aminoacylation ribozyme variant] | 21 | 2.75 | 5.43 | 3.31
17 | AUUACCCUGGUCAGCGAGUGG [Fam2.1 aminoacylation ribozyme variant] | 2.26 | 2.51 | 2.61 | 2.51
18 | AUUACCCUGGUCAUCGUGCGA [Fam2.1 aminoacylation ribozyme variant] | 9.74 | – | 2.28 | 2.14
19 | AUUACCCUGGUCAUCUCGUGA [Fam2.1 aminoacylation ribozyme variant] | 12.4 | 2.37 | 2.81 | 2.62

Row | Sequence | self-aminoacylation (biotinyl-Phe-oxazolone) | self-aminoacylation (biotinyl-Met-oxazolone) | self-aminoacylation (biotinyl-Trp-oxazolone) | self-aminoacylation (biotinyl-Leu-oxazolone)
20 | AUUACCCUGGUCGUCGAGCGA [Fam2.1 aminoacylation ribozyme variant] | 3.35 | – | – | 2.17
21 | AUUACCCUGGUUAUCAAGUGA [Fam2.1 aminoacylation ribozyme variant] | 4.14 | 2.67 | 3.4 | 2.53
22 | AUUACCGUGGUCAUCAAGUGA [Fam2.1 aminoacylation ribozyme variant] | 4.54 | 2.83 | 3.6 | 3.05
23 | AUUACGCUCGUCAUCGAGUGA [Fam2.1 aminoacylation ribozyme variant] | 3.68 | 2.09 | 2.54 | 2.5
24 | AUUACUCUGGUCAUCGAGUGG [Fam2.1 aminoacylation ribozyme variant] | – | 2.16 | – | 2.42
25 | AUUAGCCUGCUCAUCGAGUGA [Fam2.1 aminoacylation ribozyme variant] | 12.2 | 3.42 | 4.65 | 2.92
26 | AUUCACAUAGGUCGUCGGGUG [Fam2.2 aminoacylation ribozyme variant] | 7.92 | – | – | 2.07
27 | AUUCACCUAGCUUAUCGGGUG [Fam2.2 aminoacylation ribozyme variant] | 4.71 | 2.12 | 2.2 | –
28 | AUUCACCUAGGACAACGGGUG [Fam2.2 aminoacylation ribozyme variant] | 25.7 | 3.6 | 2.92 | 3.72
29 | AUUCACCUAGGUCAACUGGUG [Fam2.2 aminoacylation ribozyme variant] | 15.9 | 2.69 | 2.21 | 3.35
30 | AUUCACCUAGGUCAGCGGCUG [Fam2.2 aminoacylation ribozyme variant] | 8.56 | 2.5 | – | 3.16
31 | AUUCACCUAGUUCAUCGGGGG [Fam2.2 aminoacylation ribozyme variant] | 6.17 | – | – | 2.23
32 | AUUCACCUAUGUCAUUGGGUG [Fam2.2 aminoacylation ribozyme variant] | 9.21 | 2.03 | 2.13 | 2.34
33 | AUUCACUUAGAUCAUCGGGUG [Fam2.2 aminoacylation ribozyme variant] | 10.8 | 2.14 | 2.82 | 2.57
34 | AUUCACUUAGGUAAUCGGGUG [Fam2.2 aminoacylation ribozyme variant] | 19.6 | 3.11 | 2.72 | 3.33
35 | AUUCACUUAGGUCAUAGGGUG [Fam2.2 aminoacylation ribozyme variant] | 3.24 | – | – | 2.08
36 | AUUCAUCUAGCUCAUCGGGUG [Fam2.2 aminoacylation ribozyme variant] | – | 2.12 | 2.3 | –
37 | AUUCAUCUAGGUCAUCAGGUG [Fam2.2 aminoacylation ribozyme variant] | 2.89 | 2.23 | 2.07 | –
38 | AUUCCCCUGGUCAUCAAGUGA [Fam2.1 aminoacylation ribozyme variant] | 3.87 | 2.36 | 2.34 | –

Row | Sequence | self-aminoacylation (biotinyl-Phe-oxazolone) | self-aminoacylation (biotinyl-Met-oxazolone) | self-aminoacylation (biotinyl-Trp-oxazolone) | self-aminoacylation (biotinyl-Leu-oxazolone)
39 | CAACUUCAAACAAUCGGUCUG [Fam1A.1 aminoacylation ribozyme variant] | 97.7 | – | 44.8 | 2.61
40 | CACCUUCAAACAAUCGGUCUG [Fam1A.1 aminoacylation ribozyme variant] | 98.1 | – | 43.9 | 2.61
41 | CAGUUUGCUAAUAGUCGCAUG [Fam3.1 aminoacylation ribozyme variant] | 2.84 | – | 2.07 | 2.08
42 | CCACACUUCAGCCAAUCGGUC [Fam1B.1 aminoacylation ribozyme variant] | – | – | 2.11 | 2.27
43 | CCACUUCAAACAAUCGGUCUU [Fam1A.1 aminoacylation ribozyme variant] | 40.9 | – | 25.2 | 2.11
44 | CCCCACUUCAAUCAAUCGGUC [Fam1B.1 aminoacylation ribozyme variant] | 37.1 | – | 31 | 2.28
45 | CGACUUCAAACAAUCGGUCUG [Fam1A.1 aminoacylation ribozyme variant] | 102 | – | 44.4 | 2.66
46 | CGACUUCAAGCAAUCGGUCUG [Fam1A.1 aminoacylation ribozyme variant] | 26.6 | – | 20.1 | 2.13
47 | CUACUUCAACCAAUCGGCCUG [Fam1A.1 aminoacylation ribozyme variant] | 47.8 | – | 42.2 | 2.86
48 | CUUCACCUAGGUCAACGGGUG [Fam2.2 aminoacylation ribozyme variant] | 9.32 | 2.28 | – | 2.48
49 | UAGUUUGCUAAUAGUCGCGAG [Fam3.1 aminoacylation ribozyme variant] | 2.58 | – | 2.02 | 2.08
50 | UAGUUUGUUAAUAGUCGCAAG [Fam3.1 aminoacylation ribozyme variant] | 3.23 | – | – | 2.05
51 | UCACACUUCAAGGAAUCGGUC [Fam1B.1 aminoacylation ribozyme variant] | 5.43 | – | 3.91 | –
52 | UCAUACUUCAAGCAAUCGGUC [Fam1B.1 aminoacylation ribozyme variant] | 16.9 | – | 9.74 | –
53 | UUAAUUCAAACAAUCGGUCUG [Fam1A.1 aminoacylation ribozyme variant] | 3.57 | – | 2.47 | –
54 | UUACUUCAAACAAUCAGUCUG [Fam1A.1 aminoacylation ribozyme variant] | 20.1 | – | 9.66 | –
55 | UUACUUCAAACAAUCGGUCUA [Fam1A.1 aminoacylation ribozyme variant] | 6.02 | – | 2.61 | –
56 | UUACUUCAAAUAAUCGGUCUG [Fam1A.1 aminoacylation ribozyme variant] | 10.3 | – | 7.5 | –
57 | UUUCUUCAAACAAUCGGUCUG [Fam1A.1 aminoacylation ribozyme variant] | 7.67 | – | 5.16 | –
